The results in this text go back to patent publication US20160032398A1, “METHODS FOR TREATING CANCER” (COMBIMMUNE, INC., priority 2013, published 2016).

Assay [1] deals with B16 melanoma tumors. Nature of the assay: Mouse model of melanoma treated with chemerin: tumor growth, with NK cell depletion (Example 5). In kind it is in vivo, mice (C57BL/6). To be noted: FIG. 10. As for the experimental part: (§1) A mouse model of melanoma was used to study the effect of an immunomodulator, chemerin (RARRES2) (Pachynski et al. J. Exp. Med. 209(8):1427-1435, 2012). Both control and chemerin-over expressing tumors were transplanted into mice. Intratumoral injections of chemerin were also evaluated. For all animal experiments, C57BL/6 or B6.129S7-Rag1tm1Mom/J (RAG1 KO) mice were purchased from the Jackson Laboratory. Murine B16F0 melanoma, L1.2 B lymphoma, and human 293 HEK lines were obtained from the American Type Culture Collection. Cell lines were grown in complete media consisting of RPMI 1640 supplemented with 10% FBS, sodium pyruvate, penicillin/streptomycin, and beta-mercaptoethanol.
(§2) To evaluate the effect of constitutively secreted chemerin on tumor growth, control or chemerin-expressing B16 melanoma tumor cells (0.5×10^6 or 1×10^6) were inoculated subcutaneously into mice. Tumor growth was measured every 2-4 d by calipers, and size was expressed as the product of perpendicular length by width in square millimeters. Mice were euthanized when tumor size reached about 400 mm^2 or when tumor sites ulcerated or at day 17 to evaluate for tumor-infiltrating leukocytes (TILs) by FACS.
(§3) To evaluate the effect of exogenous chemerin on tumor growth, tumor lines were inoculated as indicated. Recombinant, active, carrier-free murine chemerin (R&D Systems) was reconstituted in sterile PBS. […]

The test system of assay [2] is LMO2. Nature of the assay: RT-qPCR of tumors for LMO2 (Example 10). In kind it is in vivo, C57BL6 mice. Conditions: after 17 days; chemerin tumors vs control; FIG. 12. As for the experimental part:
(§4) In order to determine the effect of chemerin on the TGS components in a mouse model, B16 melanoma tumors were implanted subcutaneously in C57BL6 mice. One cohort of mice received control tumors that received no treatment. The other cohort received tumors that were engineered to secrete the chemoattractant chemerin locally, thereby mimicking intratumoral injections of the chemoattractant.
(§5) After a period of 17 days, tumors were analyzed by RT-qPCR for LMO2 and CD137 (TNFRSF9), the key components of the TGS. […] Accordingly, a calculated TGS from the tumors would result in improved/lowered TGS score for the chemerin-treated group, whereas the control group that was not treated, and thus had fewer infiltrating NK and T cells, would have a worse/higher TGS score. GAPDH was used as the housekeeping/reference gene (not shown).

Assay [3] deals with B16 melanoma tumors. Briefly: Control, EGFR-expressing and chemerin-secreting B16 tumors: tumor size (Example 11). In kind it is in vivo, mice. To be noted: chemerin-secreting B16 tumors; Day 11; vs control tumors treated with cetuximab; FIG. 16. As to the method: (§6) In a separate experiment, three cohorts of mice were inoculated with B16 melanoma tumors. […] Each group comprised three mice. Tumors were allowed to grow until Day 9. […] Forty-eight hours after the single injection (Day 11), the tumors from all three groups were analyzed for infiltrating NK and T cells, as well as CD137 (TNFRSF9) expression.
The same tumors from the three groups were analyzed for tumor size (mm^2), a surrogate for clinical outcomes and survival, at pretreatment ([…]) and post-treatment (Day 11).

Assay [4] concerns B16 melanoma tumors. Briefly: Mouse model of melanoma treated with chemerin: tumor-infiltrating leukocytes by FACS (Example 5). The format is in vivo, mice (C57BL/6). As to the method: as §1, §2, §3
Assay [5] relates to CD137. Nature of the assay: RT-qPCR of tumor biopsies for CD137 (Example 11). The format is in vivo, mice. As to the method: as §6
Tumor biopsies from the three treatment groups were also analyzed by RT-qPCR to measure LMO2 and CD137 expression.
The TGS takes into account the relative expression levels of both CD137 and LMO2. Therefore, the ratio of relative expression of CD137 to LMO2 was determined.

Assay [6] relates to B16 melanoma tumors. Nature of the assay: Control, EGFR-expressing and chemerin-secreting B16 tumors: tumor-infiltrating leukocytes by FACS (Example 11). The format is in vivo, mice. Conditions: chemerin-secreting B16 tumors; Day 11; FIG. 13B. As for the experimental part:
as §6

The test system of assay [7] is CD137 (TNFRSF9). Nature of the assay: RT-qPCR of tumors for CD137 (Example 10). The format is in vivo, C57BL6 mice. Conditions: after 17 days; chemerin tumors (n=5) vs control group (n=4); GAPDH reference; FIG. 12. As to the method: as §4, §5
Assay [8] relates to B16 melanoma tumors. Briefly: Chemerin-secreting B16 melanoma tumors: tumor size (Example 10). In kind it is in vivo, C57BL6 mice. Conditions: chemerin (RARRES2) secreting tumors vs control tumors; p<0.05; FIG. 11.
Text: as §4
Clinically, the changes in the number of tumor-infiltrating leukocytes also correlated with tumor growth as well.

For assay [9], the system named is CD137 (TNFRSF9). Briefly: CD137 expression on tumor-infiltrating leukocytes by FACS (Example 11). The format is in vivo, mice. Conditions: chemerin-secreting B16 tumors; vs control tumors treated with cetuximab; FIG. 14. As for the experimental part:
as §6

In assay [10] the test system is B16 melanoma tumors. Briefly: Chemerin-secreting B16 melanoma tumors: tumor-infiltrating leukocytes (Example 10). The format is in vivo, C57BL6 mice. To be noted: tumors engineered to secrete chemerin vs control tumors; FIG. 9.
Text: as §4

B1: chemerin: chemoattractant polypeptide that attracts cells including NK cells, T cells, macrophages and dendritic cell subsets; given recombinant or secreted by engineered tumors (protein, UniProt Q99969 21-157, looked up)
Retinoic acid receptor …: ELTEAQRRGLQVALEEFHKHPPVQWAFQETSVESAVDTPFPAGIFVRLEFKLQQTSCRKRDWKKPECKVRPNGRKRKCLACIKLGSEDKVLGRLVHCPIETQVLREAEEHQETQCLRVQRAGEDPHSFYFPGQFAFS
For B1, in assay [1] (NK cells depleted with anti-Asialo GM1), the “clinical efficacy on tumor growth after depletion of NK cells” value was “abrogated the clinical efficacy”. Besides, in assay [1] (mice), the tumor growth result is recorded as “inhibit tumor growth”. The “LMO2 expression by RT-qPCR” value in [2] is “not significantly changed”. The tumor size result in assay [3] and in [8] was “significantly smaller than control tumors” in each case. Besides, the “NK and T cells in murine tumors” value in [4] (FIG. 8) is “increase in NK and T cells”. Further, in [4] (FIG. 9), the “infiltrating leukocyte subsets in murine tumors (activated NK and T cells)” value was “increased the representation of activated NK and T cells”. Moreover, the “CD137:LMO2 ratio of relative expression” value in assay [5] (chemerin treated tumors vs non-EGFR and cetuximab treated tumors, FIG. 19) is “greater”. Moreover, the “relative CD137 expression (RT-qPCR)” value in [5] (tumors treated with chemerin, 48 hours time point, FIG. 17B) is “significantly higher”. Besides, the “CD8+ T cells and NK cells of CD45+ TIL” value in assay [6] is “small increases in both CD8+ T cells and NK cells”. Further, the “CD137 (TNFRSF9) expression by RT-qPCR” value in [7] was “significantly increased”. The “CD137 expression on total tumor-infiltrating leukocytes (FACS)” value in assay [9] is on record as “increase in CD137 expression”. Moreover, the “tumor-infiltrating leukocytes (NK and T cells)” value in [10] is reported as “increase in tumor-infiltrating leukocytes”.
